Target: HLA-A2.1 heavy chain with I125-labeled β2-microglobulin (heterotrimer dissociation assay) (human)
Assay: dissociation of 125I-β2-microglobulin from the HLA-A2.1/peptide/β2m heterotrimer, HPLC gel filtration

HTLV-1 Tax peptide (aa 11-19) (from UniProt P03409 11-19) (peptide; other documents disagree on this pair)
T1/2: 133 h
